Experimental findings from the supplement of paper PMC10126150 are described below.

± gives the standard deviation of the averaged measurements.

This data set deals with ATP. Briefly: switch fluorescence ratio, 500 uM ATP over buffer (Cy3 cluster intensity, sum of 5 cycles each) (fold (ratio)); higher = stronger signal-on switching upon ATP binding; sequences stand for … in TCGTCGGCAGCGTCAGATGTGTATAAGAGACAGTTTTTTTTTTTTTTTTTTTTTTTTT…TC. The following applies: aptamer strand: ATP DNA aptamer (quencher-CACCTGGGGGAGTATTGCGGAGGAAGG + anchor), 100 nM annealed; ATP concentration: 500 uM. The gist of the method:
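Exposure to 500 uM ATP lasted 15 min at 22 °C before imaging, and a selection-buffer image was taken beforehand, for Cy3-labelled switching-strand clusters on a modified Illumina MiSeq flow-cell annealed to 100 nM quencher-labelled ATP aptamer. Five buffer/ATP cycles were run with NaOH stripping and re-annealing between them. The fluorescence ratio per cluster is summed target-cycle over summed buffer-cycle Cy3 intensity, averaged per switch-domain sequence. Clusters outside 100-1000 RFU were excluded.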
Regarding AGCCGGACGC, the switch fluorescence ratio is 1.066 ± 0.0075.

ACGCCTGGTC: the switch fluorescence ratio worked out at 1.01 ± 0.059.

Take CCGGTTTGGC: the switch fluorescence ratio is 1.062 ± 0.006.

Regarding TGGGCAAAAA, the switch fluorescence ratio was 1.01 ± 0.011.

Consider AATTGTATGG, for which the switch fluorescence ratio is 1.04 ± 0.044.

As for GATATTATTT, the switch fluorescence ratio was 0.998 ± 0.024.

With ATAGGCATCA, the switch fluorescence ratio came out at 1.18 ± 0.3.

On to CTTTCAATGG, for which the switch fluorescence ratio came out at 1.07 ± 0.015.

With ACCATCGTAG, the switch fluorescence ratio stood at 1.0191 ± 0.00047.

As for TTTATCGTTT, the switch fluorescence ratio is 1 ± 0.032.

Turning to CACTAGTAGA, the switch fluorescence ratio was 1.03 ± 0.028.

For the sequence GGTCTGATGG, the switch fluorescence ratio stood at 0.987 ± 0.035.

As to CCAGAGAGCC, the switch fluorescence ratio is 1.04 ± 0.028.

As to TTAGAGATTC, the switch fluorescence ratio is 0.961 ± 0.031.

On to CCTGAGTCTG, for which the switch fluorescence ratio was 1.57 ± 0.038.

With TTTGAAGTGG, the switch fluorescence ratio came to 1.03 ± 0.03.

Turning to ACTGCGAATA, the switch fluorescence ratio turned out to be 1.41 ± 0.021.

With GGATATACGT, the switch fluorescence ratio worked out at 1.01 ± 0.017.

Regarding ATGTTAGGG, the switch fluorescence ratio turned out to be 0.98 ± 0.011.

Turning to GCGGGTTGGC, the switch fluorescence ratio was 1.08 ± 0.011.

As for TACTTTGCG, the switch fluorescence ratio was 1.01 ± 0.017.

On to AGGCTATTTC, for which the switch fluorescence ratio worked out at 0.994 ± 0.019.

With CGAGTCTGCC, the switch fluorescence ratio came to 1.04 ± 0.075.

As for TTGAATACCC, the switch fluorescence ratio was found to be 1.052 ± 0.008.

On to CAAGACTTGC, for which the switch fluorescence ratio came to 1.03 ± 0.045.

On to CGGGAGGGAA, for which the switch fluorescence ratio was determined as 1.02 ± 0.023.

With TAAATGGA, the switch fluorescence ratio amounted to 1.04 ± 0.039.

For CTCGGGGTTG, the switch fluorescence ratio came out at 1.022 ± 0.008.

Turning to GTGCTATAGT, the switch fluorescence ratio is 1.031 ± 0.0018.

Turning to CTTTGGCTTC, the switch fluorescence ratio came out at 0.9876 ± 0.0039.

Regarding GTTGGGGGGT, the switch fluorescence ratio turned out to be 0.989 ± 0.02.

TATAACGGAG: the switch fluorescence ratio is 1.01 ± 0.014.

Regarding GATTTTCGCT, the switch fluorescence ratio came to 0.971 ± 0.022.

As to TGTAGTAGCA, the switch fluorescence ratio is 1.04 ± 0.034.

Take GCAACATTCT: the switch fluorescence ratio was 1.03 ± 0.022.

Regarding GCGGGCCGGG, the switch fluorescence ratio worked out at 0.988 ± 0.058.

As for AAAAAAGCAG, the switch fluorescence ratio is 1.024 ± 0.0014.

As for CATATGGGGT, the switch fluorescence ratio stood at 1 ± 0.038.

For the sequence GCATTCAATG, the switch fluorescence ratio came out at 1.01 ± 0.024.

Take AGTAGGAATT: the switch fluorescence ratio was found to be 0.99 ± 0.038.

In the case of AATTTGGGAA, the switch fluorescence ratio came out at 0.999 ± 0.017.

In the case of TTTTGTGTA, the switch fluorescence ratio was 0.994 ± 0.022.

As to CGTCTAAGTG, the switch fluorescence ratio is 0.99 ± 0.019.

Consider AATCTGGGCG, for which the switch fluorescence ratio was 0.985 ± 0.016.

For the sequence GGCAATTGGA, the switch fluorescence ratio was 1.01 ± 0.011.

For the sequence GGTACTTTGT, the switch fluorescence ratio was 1.03 ± 0.039.

On to ACACACGACG, for which the switch fluorescence ratio came out at 1.29 ± 0.013.

With GGGAAGAGGA, the switch fluorescence ratio was 0.979 ± 0.025.

In the case of GGCCTACCGC, the switch fluorescence ratio came out at 1.13 ± 0.036.

As for AGAGAAGATG, the switch fluorescence ratio was 1.01 ± 0.034.

In the case of TTTAACCCCC, the switch fluorescence ratio was determined as 1.17 ± 0.24.

Turning to ATCGGGAATT, the switch fluorescence ratio turned out to be 1.009 ± 0.0044.

In the case of TCCTGAAATT, the switch fluorescence ratio is 0.987 ± 0.015.

In the case of ACACGATTGG, the switch fluorescence ratio came to 0.991 ± 0.014.

Regarding CGGGAAATTG, the switch fluorescence ratio was found to be 0.9893 ± 0.0035.

As to TTACATGTTG, the switch fluorescence ratio is 1.04 ± 0.04.

On to TTAAGGACGT, for which the switch fluorescence ratio came out at 0.984 ± 0.016.

For GCAACCATTA, the switch fluorescence ratio is 1.03 ± 0.018.

As for CTTATATTTT, the switch fluorescence ratio turned out to be 0.997 ± 0.066.

For the sequence TACAGAGGTT, the switch fluorescence ratio stood at 1.01 ± 0.059.

In the case of GATCGGTAAT, the switch fluorescence ratio amounted to 1.04 ± 0.028.

TTGTAAGTTT: the switch fluorescence ratio was determined as 0.985 ± 0.049.

For CGGTTTATGG, the switch fluorescence ratio was determined as 0.943 ± 0.022.

Turning to GGGGGAACCG, the switch fluorescence ratio is 0.994 ± 0.08.

Turning to TTCGTACCGC, the switch fluorescence ratio worked out at 1.09 ± 0.029.

Turning to TCGTGGGTAT, the switch fluorescence ratio was 0.998 ± 0.025.

For CTTTATGGTT, the switch fluorescence ratio is 0.99 ± 0.065.

On to TAACGGCGTG, for which the switch fluorescence ratio amounted to 1.03 ± 0.021.

On to CGGGGTTGCC, for which the switch fluorescence ratio turned out to be 0.955 ± 0.022.

In the case of TAATTTGTTC, the switch fluorescence ratio came to 1 ± 0.026.

Regarding TTTGTGTAGC, the switch fluorescence ratio is 1 ± 0.038.

For GACGGGCGGA, the switch fluorescence ratio amounted to 1.019 ± 0.0024.

As for TGGGGTCTGA, the switch fluorescence ratio turned out to be 0.974 ± 0.017.

On to ACACTGCTCG, for which the switch fluorescence ratio amounted to 1.05 ± 0.011.

For the sequence TTCTTGACTT, the switch fluorescence ratio worked out at 1.02 ± 0.011.

In the case of GTTGGGGCAG, the switch fluorescence ratio was found to be 0.961 ± 0.034.

Regarding GGTTTGAAGC, the switch fluorescence ratio turned out to be 0.9642 ± 0.008.

On to GCGGATCAGC, for which the switch fluorescence ratio stood at 1.01 ± 0.059.

As for GAAATTTGGA, the switch fluorescence ratio turned out to be 0.991 ± 0.034.
